Measured values: patent CN117586402A (HEFEI TIANGANG IMMUNOLOGY PHARMACEUTICAL CO LTD, dated 2024)

Molecular target: T1, NKp80 on human primary T cells and NK cells (人PBMC中CD3+ T细胞和CD56+ NK细胞) (人 (human), UniProt Q9NZS2 1-231)
T1 construct: whole, on cells; also called 人原代T细胞和NK细胞
T1 sequence (looked up): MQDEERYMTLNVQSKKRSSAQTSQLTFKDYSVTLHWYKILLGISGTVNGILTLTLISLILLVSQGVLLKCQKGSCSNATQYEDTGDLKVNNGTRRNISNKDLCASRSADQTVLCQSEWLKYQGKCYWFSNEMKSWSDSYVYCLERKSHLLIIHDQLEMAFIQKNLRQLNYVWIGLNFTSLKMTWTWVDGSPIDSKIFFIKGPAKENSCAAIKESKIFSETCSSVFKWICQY
Experiment: flow cytometry on human PBMC, CD3+ cells

- binding result: binds
B1: 嵌合NKp80抗体(53G7) (antibody, human IgG1, V domains shown)
VH: EVQLQQSGPELVNPGASVKISCKTSGYTFTDYYMNWVKQSHGKSLEWIGDIHPNNGGTSYNQKFKGKATLTVDKSSSTAYMELRSLTSEDSAVYYCARDYGGTYTNWAQNYFDYWGQGTTLTVSS
VL: DIVQTQSPASLAVSLGQRATISCRASQSVSTPSYSYMHWYQQKPGQPPKLLIKYASNLESGVPARFSGSGSGTDFTLNIHPVEEEDTATYYCQHSWEIPWTFGGGTKLEIKA
notes: also called 53G7抗体; 抗人NKp80抗体53G7
